Laboratory results from paper PMC7948467, “Discovery of an ultraspecific triuret hydrolase (TrtA) establishes the triuret biodegradation pathway” (The Journal of Biological Chemistry, 2020).

Substrate: NC(=O)NC(=O)NC(N)=O
Assay: ammonia release, Berthelot assay
Assay type: biochemical, Herbaspirillum sp. BH-1
Conditions: phosphate buffer
[1] = pH 6.5 (optimum), 25 °C, His-tag kept

B1: TrtA (Herbaspirillum sp. BH-1) (protein)
chain: MIRIDATPYPYQFHPRSTALVVIDMQRDFIEEGGFGSALGNDVRPLAAIVPTVAALLQLAREAGMLVVHTRESHLPDLSDCPRSKRLRGNPTLGIGDVGPMGRILVQGEPGNQILPQLAPVEGELVIDKPGKGAFYATDLHAQLQERRITHLLVAGVTTEVCVQTSMREANDRGYECLVIEDACASYFPDFHRITLEMLTAQGGIVGWRTPLAQLQAGVAAYTGENP
notes: N-terminal 6xHis tag and thrombin site kept, pET28a, E. coli BL21(DE3), codon-optimized; subunit 24 kDa, homodimer
For B1, the Km [1] was 21 ± 3 µM, the kcat [1] was 11 ± 1 s⁻¹ and the kcat/Km [1] was 530000 ± 100000 M⁻¹ s⁻¹.

B2: TrtA +Cleaved His-tag (Herbaspirillum sp. BH-1) (protein)
chain: MIRIDATPYPYQFHPRSTALVVIDMQRDFIEEGGFGSALGNDVRPLAAIVPTVAALLQLAREAGMLVVHTRESHLPDLSDCPRSKRLRGNPTLGIGDVGPMGRILVQGEPGNQILPQLAPVEGELVIDKPGKGAFYATDLHAQLQERRITHLLVAGVTTEVCVQTSMREANDRGYECLVIEDACASYFPDFHRITLEMLTAQGGIVGWRTPLAQLQAGVAAYTGENP
notes: N-terminal 6xHis tag cut by thrombin, E. coli BL21(DE3); homodimer ~48 kDa; crystal rows placed here, but may be the C-terminal deletion construct
Protein B2 has a Km (pH 8, 25 °C) of 15 ± 3 µM, a kcat (pH 8, 25 °C) of 8.8 ± 0.4 s⁻¹ and a kcat/Km (pH 8, 25 °C) of 610000 ± 160000 M⁻¹ s⁻¹.
